NF/NT, Mean (fluorescent cells out of 77 cells) and NF/NT, Mean (fluorescent cells out of 57 cells) data for one substance are collected here from patent US10040829B2.

The target in one experiment is hASCT1 receptor (human) (UniProt P43007). In words: in vivo binding in SCID mice grafted with XChASCT1 cells; anti-RGS His and anti-mouse FITC, IF reading.
For experiment [1], the target named is hASCT2 receptor (type 2 sodium-dependant neutral amino acid receptor-transporter) (human) (UniProt Q15758). In words: in vivo binding in SCID mice grafted with XChASCT2 cells; anti-RGS His and anti-mouse FITC, IF reading.

In turn, “soluble HERV-W Env protein of Example 7 (293T cells transfected with the plasmid 460, envelope-spacer-His6)” registered an NF/NT, Mean (fluorescent cells out of 77 cells) with hASCT1 receptor (human) of 24. This substance also returned an NF/NT, Mean (fluorescent cells out of 57 cells) in experiment [1] of 23.
